Test results from patent US20040009534A1 (DYAX, published 2004).
Positions of bridges follow the written chain, without caps; N, C: chain ends. No end group written: not given here.

Assays:
human plasma IgG3 [1] = biological target: T1, human plasma IgG3 (human, UniProt P01860-1 1-377); test: Oregon Green peptide, pH 4.0 - salt
T1 construct: Plasma-derived IgG isoform, bought
Procedure: (§1) Binding studies were performed using human plasma IgG isoforms: IgG1, IgG2, IgG3, and IgG4, obtained from Calbiochem.
(§2) Binding studies were carried out at either pH 4.0, 7.5, or 9.5, with or without salt in the following buffers: […]

human plasma IgG3 [2] = biological target: T1, human plasma IgG3; test: Oregon Green peptide, pH 4.0 + salt (500 mM NaCl)
Procedure: as §1, §2

human plasma IgG3 [3] = biological target: T1, human plasma IgG3; test: Oregon Green peptide, TBS pH 7.5
Procedure: as §1, §2

human plasma IgG1 [4] = biological target: T2, human plasma IgG1 (human, UniProt P01857-1 1-330 = IgG part); test: Oregon Green peptide, pH 4.0 - salt
T2 construct: Plasma-derived IgG isoform, bought
T2 sequence (P01857 other isoform, or with tags, fused parts or gaps): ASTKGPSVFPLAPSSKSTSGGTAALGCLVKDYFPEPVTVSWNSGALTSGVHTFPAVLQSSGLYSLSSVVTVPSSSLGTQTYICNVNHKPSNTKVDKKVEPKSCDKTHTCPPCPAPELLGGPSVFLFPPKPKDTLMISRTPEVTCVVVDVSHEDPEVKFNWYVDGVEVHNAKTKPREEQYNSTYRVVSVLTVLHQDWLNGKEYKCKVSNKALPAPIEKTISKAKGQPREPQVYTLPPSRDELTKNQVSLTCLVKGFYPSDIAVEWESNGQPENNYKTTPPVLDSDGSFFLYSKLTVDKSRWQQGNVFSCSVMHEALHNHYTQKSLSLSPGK
Procedure: as §1, §2

human plasma IgG4 [5] = biological target: T3, human plasma IgG4 (human, UniProt P01861-1 1-327 = IgG part); test: Oregon Green peptide, pH 4.0 - salt
T3 construct: Plasma-derived IgG isoform, bought
T3 sequence (P01861 other isoform, or with tags, fused parts or gaps): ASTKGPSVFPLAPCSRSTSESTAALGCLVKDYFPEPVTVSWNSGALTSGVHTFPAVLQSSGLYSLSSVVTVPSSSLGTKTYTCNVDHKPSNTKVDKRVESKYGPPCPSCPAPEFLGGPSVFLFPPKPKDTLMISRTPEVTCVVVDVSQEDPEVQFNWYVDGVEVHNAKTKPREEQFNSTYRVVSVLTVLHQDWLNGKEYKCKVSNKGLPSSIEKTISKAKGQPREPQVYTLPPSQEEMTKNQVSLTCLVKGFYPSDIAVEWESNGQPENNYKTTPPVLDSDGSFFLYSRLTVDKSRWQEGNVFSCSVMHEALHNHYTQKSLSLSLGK
Procedure: as §1, §2

human plasma IgG1 [6] = biological target: T2, human plasma IgG1; test: Oregon Green peptide, pH 7.5 - salt
Procedure: as §1, §2

human plasma IgG4 [7] = biological target: T3, human plasma IgG4; test: Oregon Green peptide, pH 7.5 - salt
Procedure: as §1, §2

human plasma IgG2 [8] = biological target: T4, human plasma IgG2 (human, UniProt P01859-1 1-326 = IgG part); test: Oregon Green peptide, pH 9.5 - salt
T4 construct: Plasma-derived IgG isoform, bought
T4 sequence (P01859 other isoform, or with tags, fused parts or gaps): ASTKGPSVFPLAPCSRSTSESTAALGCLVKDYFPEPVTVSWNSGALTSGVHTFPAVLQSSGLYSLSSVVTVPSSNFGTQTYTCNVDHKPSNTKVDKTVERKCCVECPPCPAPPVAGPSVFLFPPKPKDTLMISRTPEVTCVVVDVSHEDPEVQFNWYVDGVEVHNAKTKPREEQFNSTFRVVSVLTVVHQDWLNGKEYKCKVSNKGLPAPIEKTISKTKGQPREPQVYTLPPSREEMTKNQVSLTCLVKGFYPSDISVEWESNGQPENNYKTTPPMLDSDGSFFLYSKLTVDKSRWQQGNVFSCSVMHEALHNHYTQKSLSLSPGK
Procedure: as §1, §2

human plasma IgG3 [9] = biological target: T1, human plasma IgG3; test: Oregon Green peptide, pH 9.5 - salt
Procedure: as §1, §2

human plasma IgG3 [10] = biological target: T1, human plasma IgG3; test: Oregon Green peptide, pH 7.5 + salt (500 mM NaCl)
Procedure: as §1, §2

human plasma IgG3 [11] = biological target: T1, human plasma IgG3; test: Oregon Green peptide, pH 9.5 + salt (500 mM NaCl)
Procedure: as §1, §2

human plasma IgG2 [12] = biological target: T4, human plasma IgG2; test: Oregon Green peptide, pH 4.0 - salt
Procedure: as §1, §2

human plasma IgG2 [13] = biological target: T4, human plasma IgG2; test: Oregon Green peptide, pH 7.5 - salt
Procedure: as §1, §2

human plasma IgG1 [14] = biological target: T2, human plasma IgG1; test: Oregon Green peptide, pH 4.0 + salt (500 mM NaCl)
Procedure: as §1, §2

human plasma IgG2 [15] = biological target: T4, human plasma IgG2; test: Oregon Green peptide, pH 4.0 + salt (500 mM NaCl)
Procedure: as §1, §2

rat serum albumin [16] = biological target: T5, rat serum albumin (Rat, UniProt P02770 25-608); test: labeled peptide, KD; PBS, pH 7.4, 0.14 M NaCl
T5 sequence (P02770 25-608 limits assumed): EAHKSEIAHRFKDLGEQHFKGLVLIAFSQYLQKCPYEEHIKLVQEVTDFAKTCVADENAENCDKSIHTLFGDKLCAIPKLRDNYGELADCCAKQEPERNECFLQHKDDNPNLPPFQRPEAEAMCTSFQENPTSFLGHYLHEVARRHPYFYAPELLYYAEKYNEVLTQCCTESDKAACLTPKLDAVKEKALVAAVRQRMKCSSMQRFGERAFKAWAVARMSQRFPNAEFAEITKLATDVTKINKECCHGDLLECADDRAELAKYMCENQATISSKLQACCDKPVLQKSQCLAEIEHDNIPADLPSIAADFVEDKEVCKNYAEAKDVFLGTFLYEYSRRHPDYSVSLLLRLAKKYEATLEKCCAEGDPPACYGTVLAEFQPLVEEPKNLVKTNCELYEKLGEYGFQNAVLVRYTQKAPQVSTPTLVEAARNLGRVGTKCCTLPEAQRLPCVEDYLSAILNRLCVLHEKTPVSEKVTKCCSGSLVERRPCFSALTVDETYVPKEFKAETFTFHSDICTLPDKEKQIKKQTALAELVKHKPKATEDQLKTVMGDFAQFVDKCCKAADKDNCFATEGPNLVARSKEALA

human serum albumin [17] = biological target: T6, human serum albumin (human, UniProt P02768 25-609); test: labeled peptide, KD; PBS, pH 7.4, 0.14 M NaCl
T6 construct: also called HSA
T6 sequence (P02768 25-609): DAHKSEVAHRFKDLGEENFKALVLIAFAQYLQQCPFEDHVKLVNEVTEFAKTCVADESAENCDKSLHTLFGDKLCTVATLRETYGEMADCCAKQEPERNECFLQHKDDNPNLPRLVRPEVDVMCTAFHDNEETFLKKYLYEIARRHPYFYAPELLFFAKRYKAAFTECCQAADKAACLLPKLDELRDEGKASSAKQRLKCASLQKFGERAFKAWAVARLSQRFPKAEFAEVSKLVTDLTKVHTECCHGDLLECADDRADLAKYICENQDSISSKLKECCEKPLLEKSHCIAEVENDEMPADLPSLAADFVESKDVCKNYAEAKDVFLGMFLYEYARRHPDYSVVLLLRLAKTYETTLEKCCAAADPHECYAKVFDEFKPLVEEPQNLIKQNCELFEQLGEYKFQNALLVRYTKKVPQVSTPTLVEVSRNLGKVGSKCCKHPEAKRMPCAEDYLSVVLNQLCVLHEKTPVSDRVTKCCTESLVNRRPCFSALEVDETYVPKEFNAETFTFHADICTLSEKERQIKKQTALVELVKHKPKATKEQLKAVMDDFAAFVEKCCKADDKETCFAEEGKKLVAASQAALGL

Rhesus serum albumin [18] = biological target: T7, Rhesus serum albumin (Rhesus, UniProt Q28522 17-600); test: labeled peptide, KD; PBS, pH 7.4, 0.14 M NaCl
T7 sequence (Q28522 17-600 limits assumed): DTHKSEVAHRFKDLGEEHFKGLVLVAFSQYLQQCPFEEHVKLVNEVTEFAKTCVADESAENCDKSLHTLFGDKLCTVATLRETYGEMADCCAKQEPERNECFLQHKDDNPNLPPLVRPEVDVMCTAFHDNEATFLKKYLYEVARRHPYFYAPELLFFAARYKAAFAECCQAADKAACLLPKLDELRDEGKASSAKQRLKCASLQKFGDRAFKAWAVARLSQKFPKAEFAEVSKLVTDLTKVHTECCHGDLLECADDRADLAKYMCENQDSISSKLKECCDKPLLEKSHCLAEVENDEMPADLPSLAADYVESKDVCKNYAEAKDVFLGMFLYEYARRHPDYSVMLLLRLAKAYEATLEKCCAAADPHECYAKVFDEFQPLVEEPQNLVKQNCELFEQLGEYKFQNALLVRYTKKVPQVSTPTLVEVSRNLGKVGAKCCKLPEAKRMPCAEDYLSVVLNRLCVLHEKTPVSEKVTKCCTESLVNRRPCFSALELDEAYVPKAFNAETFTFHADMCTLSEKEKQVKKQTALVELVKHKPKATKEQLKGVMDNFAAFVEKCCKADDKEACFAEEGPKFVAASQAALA

goat serum albumin [19] = biological target: T8, goat serum albumin (Goat); test: labeled peptide, KD; PBS, pH 7.4, 0.14 M NaCl
T8 construct: also called GSA
T8 sequence (P85295 whole entry, looked up): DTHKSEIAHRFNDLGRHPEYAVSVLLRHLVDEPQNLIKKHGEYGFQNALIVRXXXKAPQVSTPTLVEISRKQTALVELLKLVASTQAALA

rat serum albumin [20] = biological target: T5, rat serum albumin; test: labeled peptide, KD; 3 mM phosphate, pH 6.2, 0 M NaCl
human serum albumin [21] = biological target: T6, human serum albumin; test: as above
Rhesus serum albumin [22] = biological target: T7, Rhesus serum albumin; test: as above
goat serum albumin [23] = biological target: T8, goat serum albumin; test: as above
bovine serum albumin = biological target: T9, bovine serum albumin (Bovine, UniProt P02769 25-607); test: labeled peptide, KD; 3 mM phosphate, pH 6.2, 0 M NaCl; labeled peptide in solution; 3 mM phosphate, pH 6.2, 0 M NaCl
T9 construct: also called BSA
T9 sequence (P02769 25-607 limits assumed): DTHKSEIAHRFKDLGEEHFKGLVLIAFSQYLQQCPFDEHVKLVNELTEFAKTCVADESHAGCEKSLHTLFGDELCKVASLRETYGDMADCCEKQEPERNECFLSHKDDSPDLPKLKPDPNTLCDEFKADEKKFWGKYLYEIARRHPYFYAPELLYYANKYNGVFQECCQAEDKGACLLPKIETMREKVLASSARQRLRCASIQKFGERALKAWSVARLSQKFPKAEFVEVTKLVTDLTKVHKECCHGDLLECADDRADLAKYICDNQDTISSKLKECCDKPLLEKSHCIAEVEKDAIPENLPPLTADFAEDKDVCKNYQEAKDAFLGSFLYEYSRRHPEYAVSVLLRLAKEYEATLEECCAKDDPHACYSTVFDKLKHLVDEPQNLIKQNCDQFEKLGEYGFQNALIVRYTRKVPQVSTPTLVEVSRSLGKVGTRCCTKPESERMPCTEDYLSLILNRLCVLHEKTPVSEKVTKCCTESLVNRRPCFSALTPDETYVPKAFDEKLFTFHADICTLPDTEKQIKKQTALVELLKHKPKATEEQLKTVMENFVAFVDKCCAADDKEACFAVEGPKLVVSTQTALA

pig serum albumin [24] = biological target: T10, pig serum albumin (Pig, UniProt P08835 25-607); test: as above
T10 sequence (P08835 25-607 limits assumed): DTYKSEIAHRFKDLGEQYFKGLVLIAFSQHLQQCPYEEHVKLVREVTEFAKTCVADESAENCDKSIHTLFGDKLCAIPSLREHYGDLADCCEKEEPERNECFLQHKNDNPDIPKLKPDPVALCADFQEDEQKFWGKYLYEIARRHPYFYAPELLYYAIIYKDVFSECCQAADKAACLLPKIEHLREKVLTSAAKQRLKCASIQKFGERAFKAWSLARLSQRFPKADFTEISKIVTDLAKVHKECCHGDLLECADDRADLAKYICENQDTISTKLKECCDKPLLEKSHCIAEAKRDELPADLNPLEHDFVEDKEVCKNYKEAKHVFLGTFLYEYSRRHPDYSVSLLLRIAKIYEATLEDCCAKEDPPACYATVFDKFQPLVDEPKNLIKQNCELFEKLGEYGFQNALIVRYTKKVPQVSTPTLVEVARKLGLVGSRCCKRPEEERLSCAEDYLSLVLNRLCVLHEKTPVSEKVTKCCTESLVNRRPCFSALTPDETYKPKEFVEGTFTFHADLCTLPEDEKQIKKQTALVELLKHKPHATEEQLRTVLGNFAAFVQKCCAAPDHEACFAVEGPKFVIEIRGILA

human plasma IgG2 [25] = biological target: T4, human plasma IgG2; test: Oregon Green peptide, pH 7.5 + salt (500 mM NaCl); pH 7.5 + salt
Procedure: as §1, §2

pig serum albumin [26] = biological target: T10, pig serum albumin; test: labeled peptide, KD; 3 mM phosphate, pH 6.2, 0 M NaCl
rabbit serum albumin = rabbit serum albumin (Rabbit, UniProt P49065 25-608); test: as above
Chain of rabbit serum albumin (P49065 25-608 limits assumed): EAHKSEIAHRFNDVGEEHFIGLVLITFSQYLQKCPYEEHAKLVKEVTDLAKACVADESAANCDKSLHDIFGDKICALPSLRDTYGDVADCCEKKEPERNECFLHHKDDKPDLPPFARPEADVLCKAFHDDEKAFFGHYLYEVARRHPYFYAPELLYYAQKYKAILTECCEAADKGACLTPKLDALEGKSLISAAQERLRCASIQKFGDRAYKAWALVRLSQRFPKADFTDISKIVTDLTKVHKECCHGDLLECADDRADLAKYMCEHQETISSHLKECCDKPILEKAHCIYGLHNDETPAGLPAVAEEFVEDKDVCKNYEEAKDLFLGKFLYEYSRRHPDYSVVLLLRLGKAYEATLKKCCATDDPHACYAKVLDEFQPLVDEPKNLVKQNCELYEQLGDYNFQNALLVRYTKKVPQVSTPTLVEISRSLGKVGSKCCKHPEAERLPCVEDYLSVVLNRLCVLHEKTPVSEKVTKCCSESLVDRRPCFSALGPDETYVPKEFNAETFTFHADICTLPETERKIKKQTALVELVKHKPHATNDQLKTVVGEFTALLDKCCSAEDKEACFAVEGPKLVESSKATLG

T1 sequence (P01860 other isoform, or with tags, fused parts or gaps): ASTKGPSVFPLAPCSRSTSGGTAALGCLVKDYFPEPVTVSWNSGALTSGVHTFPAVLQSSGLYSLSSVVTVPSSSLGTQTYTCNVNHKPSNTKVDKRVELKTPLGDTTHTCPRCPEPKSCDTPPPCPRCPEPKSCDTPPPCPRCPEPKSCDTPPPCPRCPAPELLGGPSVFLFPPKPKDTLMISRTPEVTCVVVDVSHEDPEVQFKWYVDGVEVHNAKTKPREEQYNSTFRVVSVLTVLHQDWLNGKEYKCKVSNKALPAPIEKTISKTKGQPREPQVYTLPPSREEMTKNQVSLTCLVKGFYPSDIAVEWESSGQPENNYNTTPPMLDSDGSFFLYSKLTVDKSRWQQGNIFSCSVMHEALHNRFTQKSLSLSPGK

B1: DX413 (peptide)
peptide: AGYWYCWFPDRPECPLYPGPEGGGK
modifications: N-terminal acetyl (Ac-); C-terminal amide (-NH2); Oregon Green labeled
notes: Synthesised by BACHEM, Oregon Green labeled, HPLC purified
Binder B1 has a Kd (human plasma IgG3 [1]) of 840 nM and a Kd (human plasma IgG3 [2]) of 1100 nM.

B2: DX398 (peptide)
peptide: Ac-AGAATCSTSYWYYQWFCTDSPGPEGGGK-NH2
modifications: cysteine pairing not given here; also: Oregon Green labeled, place not given here
notes: as for B1
Work on B2 yielded a Kd (human plasma IgG3 [3]) of over 10 µM, a Kd (human plasma IgG1 [4]) of 2400 nM and a Kd (human plasma IgG3 [1]) of 20 nM. It also gave a Kd (human plasma IgG4 [5]) of 1600 nM, a Kd (human plasma IgG1 [6]) of 4.6 µM and a Kd (human plasma IgG4 [7]) of 3.5 µM. The Kd (human plasma IgG2 [8]) was over 10 µM, the Kd (human plasma IgG3 [9]) was over 10 µM and the Kd (human plasma IgG3 [2]) was 40 nM. It also gave a Kd (human plasma IgG3 [10]) of 0.3 µM and a Kd (human plasma IgG3 [11]) of 300 nM.

B3: DX404 (peptide)
peptide: AGTYWCTFWELPCDPAPGPEGGGK
modifications: N-terminal acetyl (Ac-); C-terminal amide (-NH2); Oregon Green labeled
notes: as for B1
B3 was tested, and the Kd (human plasma IgG1 [4]) was 1500 nM, the Kd (human plasma IgG2 [12]) was 1000 nM and the Kd (human plasma IgG3 [1]) was 10 nM. It also gave a Kd (human plasma IgG1 [6]) of 8.8 µM, a Kd (human plasma IgG2 [13]) of 8.6 µM and a Kd (human plasma IgG1 [14]) of 2000 nM. The Kd (human plasma IgG2 [15]) was 2000 nM and the Kd (human plasma IgG3 [2]) was 200 nM.

B4: DX-321 (peptide)
peptide: AEGTGDRNMCKFSWIRSPAFCARADPE
modifications: not fully specified (bridges); cysteine pairing not given here; also: label not named, exact tested form not given here, immobilised via C-terminal lysine to Sepharose
For B4, the Kd (rat serum albumin [16]) was 117 µM, the Kd (human serum albumin [17]) was 84 µM and the Kd (Rhesus serum albumin [18]) was 82 µM. The Kd (goat serum albumin [19]) was 83 µM, the Kd (rat serum albumin [20]) was 23 µM and the Kd (human serum albumin [21]) was 900 nM. For the same binder, the Kd (Rhesus serum albumin [22]) was 38 µM, the Kd (goat serum albumin [23]) was 95 µM and the Kd (bovine serum albumin) was 21 µM. For the same binder, the Kd (pig serum albumin [24]) was 21 µM.

B5: DX389 (peptide)
peptide: AGPHNCDDHYWYCKWFPGPEGGGK
modifications: N-terminal acetyl (Ac-); C-terminal amide (-NH2); Oregon Green labeled
notes: as for B1
Work on B5 yielded a Kd (human plasma IgG3 [1]) of 2500 nM, a Kd (human plasma IgG3 [2]) of 1800 nM and a Kd (human plasma IgG3 [10]) of over 10 µM. The Kd (human plasma IgG2 [25]) was over 10 µM.

B6: DX-236 (peptide)
peptide: AEGTGDFWFCDRIAWYPQHLCEFLDPEGGGK
modifications: disulfide 10-21 (inferred); not fully specified; also: labeled, label not named, coupled via C-terminal lysine to NHS-Sepharose
notes: Cyclic (disulfide) phage-display peptide
Work on B6 yielded a Kd (goat serum albumin [19]) of 23 µM, a Kd (goat serum albumin [23]) of 1.6 µM and a Kd (pig serum albumin [26]) of 500 nM. For the same binder, the Kd (rabbit serum albumin) was 500 nM.

B7: DX392 (peptide)
peptide: AGSYWCKIWDVCPQSPGPEGGGK
modifications: N-terminal acetyl (Ac-); C-terminal amide (-NH2); Oregon Green labeled
notes: as for B1
B7 was tested, and the Kd (human plasma IgG3 [1]) was 320 nM, the Kd (human plasma IgG3 [2]) was 600 nM and the Kd (human plasma IgG3 [10]) was over 10 µM. The Kd (human plasma IgG3 [11]) was over 10000 nM.

B8: DX395 (peptide)
peptide: AGKYWCNLWGVCPANPGPEGGGK
modifications: N-terminal acetyl (Ac-); C-terminal amide (-NH2); Oregon Green labeled
notes: as for B1
For B8, the Kd (human plasma IgG3 [1]) was 1000 nM and the Kd (human plasma IgG4 [7]) was over 10 µM.
